Source: patent US20250043302A1, “MUTATED HYDROXYPHENYLPYRUVATE DIOXYGENASE POLYPEPTIDE, AND CODING GENE AND USE THEREOF” (BEIJING DABEINONG BIOTECHNOLOGY CO., LTD., priority 2021, published 2025)
Where a chain is given by its changes, count along the chain named. In names and notes the source's numbering stands.

B1: NtHPPDm-F372A-02: nucleotide sequence encoding Nicotiana tabacum HPPD with F372A; vector DBN11751 (nucleic acid)
DNA: ATGGGGAAGCTGGAAACCGTCACTACCACCTCGGCGGCGGCTGCTGATGATTCATCGGAATTAACAACCAACTTCAAGTTGGTTGGTTTCAAAAATTTCATCAGAACAAACCCAAGGTCTGATTTCTTCTCCGTCAAGAGCTTCCACCACATTGAATTCTGGTGCGGTGACGCAACTAACACAGCGCGCCGCTTCTCATGGAGCCTAGGGATGCCAATTGCAGCTAAGAGTGATCTTTCAACAGGAAACAGCGTGCACGCCTCCTACCTCCTCCGGCCCGTAAGCGGTTCTTTACAGTTCCTGTTTACAGCACCATATTCACCTTCTATTTCGACTCCTAGTTCAGCTGCAATCCCATCTTTTTCCACATCTACACATAGGTCTTTCACTACAACACATGGACTGGGTGTTCGTGCCGTCGCCCTCGAGGTGGAGAATGCTTATACTGCCTTCAGTGCTTCTGTCTCCAGAGGCGCCAAGCCAATGTTTGAACCTGTGACAATTGATGAACAAGTAGCAATGGCTGAGGTTCATTTGTACGGCGATGTTGTGCTGCGATTTGTTTCTTATCTCAAGGACGCCGACAACCTGGTCTTCCTGCCGGGGTTTGAGGCCATGGATGAAACTGCTAGTTACAAAGAACTTGATTATGGAATACGGCGTTTGGATCATGCTGTGGGCAATGTTCCAGAACTCGGCCCGGTAGTTGATTACATCAAGAGGTTTACTGGATTTCATGAATTTGCAGAGTTTACCGCTGAAGATGTGGGAACTGCGGAAAGTGGGCTAAACTCCATGGTTCTTGCGAACAATGATGAGACTGTGCTCCTCCCTCTGAATGAGCCTGTTTATGGCACCAAAAGAAAATCTCAGATACAAACATATCTTGAGCATAATGAAGGAGCTGGGGTGCAGCACCTTGCTCTTGTTACTGAAGACATCTTTAAGACTTTGACAGAGATGAGGAAGAGAAGTGGAGTTGGAGGTTTTGAGTTCATGCCTTCCCCCCCGCCGACCTACTACAAGAATTTGAAGAACAGGGCTGGTGACGTCCTCTCAGACGAGCAGATTTTGGCTTGTGAGGAGCTTGGCATCTTGGTAGACCGGGACGACCAGGGGACGCTTCTCCAAATTGCCACAAAACCCGTCGGGGACCGCCCCACCATATTTATTGAGATCATCCAGAGGATAGGCTGCATGCTTAAAGATGGAAAAGGTCAAGTGTACCAGAAGGGTGGTTGTGGTGGGTTTGGCAAAGGAAATTTTTCTGAGCTGTTCAGAAGCATAGAAGAATATGAGAAGACACTGGAAGCAAAACAAGCAAATCAAGTTGCGGCCGCGTGA
modifications: NtHPPDm-F372A-02 Nucleotide Sequence
notes: vector DBN11751
B2: NtHPPDm-F383W-02: nucleotide sequence encoding Nicotiana tabacum HPPD with F383W; vector DBN11752 (nucleic acid)
DNA: B1 DNA with G1135T, C1136T, T1169G, T1170G
modifications: NtHPPDm-F383W-02 Nucleotide Sequence
notes: vector DBN11752

Key:
Assay type in all cases: in vivo
[1] = tested on: Arabidopsis thaliana T1 plants; experiment: Topramezone tolerance of transgenic Arabidopsis thaliana T1 plants (spray, bleached leaf area grade, damage score); settings: 7 DAT, Table 4; for Classification and statistics of the grade of pesticide damage: Grade 0 / Classification and statistics of the grade of pesticide damage: Grade 1 / Classification and statistics of the grade of pesticide damage: Grade 2 / Classification and statistics of the grade of pesticide damage: Grade 3: number of plants; for Scores: pesticide damage score 0-100
Outline: (§1)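 Damage graded 0–3 from the proportion of bleached leaf area 7 days after spraying. Plants were glufosinate-selected T1 lines, 18 days after sowing, plus vector and wild-type controls. Rates: mesotrione 52.5–420, isoxaflutole 35–280, topramezone 25–200 g ai/ha, with water (0×).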

[2] = tested on: Arabidopsis thaliana T1 plants; experiment: Isoxaflutole tolerance of transgenic Arabidopsis thaliana T1 plants (spray, bleached leaf area grade, damage score); parameters: Scores (pesticide damage): scale not given here; settings: spray, Arabidopsis thaliana T1 plants; for Classification and statistics of the grade of pesticide damage: Grade 0 (number of plants) / Classification and statistics of the grade of pesticide damage: Grade 1 (number of plants) / Classification and statistics of the grade of pesticide damage: Grade 2 (number of plants) / Classification and statistics of the grade of pesticide damage: Grade 3 (number of plants): 16 plants
Outline: as §1

[3] = tested on: Arabidopsis thaliana T1 plants; experiment: Mesotrione tolerance of transgenic Arabidopsis thaliana T1 plants (spray, bleached leaf area grade, damage score); parameters: Scores: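 damage score 0-100 computed as Σ(N×S)/(T×M)×100 over grades 0-3 with higher meaning more damage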; settings: Arabidopsis thaliana T1 plants; for Grade 0 (classification and statistics of the grade of pesticide damage; number of plants) / Grade 1 (classification and statistics of the grade of pesticide damage; number of plants) / Grade 2 (classification and statistics of the grade of pesticide damage; number of plants) / Grade 3 (classification and statistics of the grade of pesticide damage; number of plants): 16 plants
Outline: as §1

[4] = isoxaflutole 35 g ai/ha (0.5x field concentration)
[5] = isoxaflutole 70 g ai/ha (1x field concentration)

| Molecule | Classification and statistics of the grade of pesticide damage: Grade 0 ([1]; topramezone 25 g ai/ha (1×)) | Classification and statistics of the grade of pesticide damage: Grade 1 ([1]; topramezone 25 g ai/ha (1×)) | Classification and statistics of the grade of pesticide damage: Grade 2 ([1]; topramezone 25 g ai/ha (1×)) | Classification and statistics of the grade of pesticide damage: Grade 3 ([1]; topramezone 25 g ai/ha (1×)) | Classification and statistics of the grade of pesticide damage: Grade 0 ([1]; topramezone 100 g ai/ha (4×)) | Classification and statistics of the grade of pesticide damage: Grade 1 ([1]; topramezone 100 g ai/ha (4×)) | Classification and statistics of the grade of pesticide damage: Grade 2 ([1]; topramezone 100 g ai/ha (4×)) | Classification and statistics of the grade of pesticide damage: Grade 3 ([1]; topramezone 100 g ai/ha (4×)) | Scores ([1]; topramezone 25 g ai/ha (1×)) | Scores ([1]; topramezone 100 g ai/ha (4×)) | Resistance evaluation ([1]; topramezone 25 g ai/ha (1×)) | Resistance evaluation ([1]; topramezone 100 g ai/ha (4×)) | Resistance evaluation [2, 4] | Scores (pesticide damage) [2, 4] | Classification and statistics of the grade of pesticide damage: Grade 0 (number of plants) [2, 4] | Classification and statistics of the grade of pesticide damage: Grade 1 (number of plants) [2, 4] | Classification and statistics of the grade of pesticide damage: Grade 2 (number of plants) [2, 4] | Classification and statistics of the grade of pesticide damage: Grade 3 (number of plants) [2, 4] | Resistance evaluation [2, 5] | Scores (pesticide damage) [2, 5] | also measured |
| --- | --- | --- | --- | --- | --- | --- | --- | --- | --- | --- | --- | --- | --- | --- | --- | --- | --- | --- | --- | --- | --- |
| B1 | 0 | 6 | 10 | 0 | 0 | 0 | 0 | 16 | 54 | 100 | poorly | non-resistant (non-resistant plants (scores 68-100)) | Poorly | 54 | 0 | 6 | 10 | 0 | Non-resistant | 100 | Classification and statistics of the grade of pesticide damage: Grade 0 (number of plants) [2, 5]: 0; Classification and statistics of the grade of pesticide damage: Grade 1 (number of plants) [2, 5]: 0; Classification and statistics of the grade of pesticide damage: Grade 2 (number of plants) [2, 5]: 0; Classification and statistics of the grade of pesticide damage: Grade 3 (number of plants) [2, 5]: 16; Resistance evaluation ([3]; mesotrione 52.5 g ai/ha): Poorly resistant; Scores ([3]; mesotrione 52.5 g ai/ha): 65; Grade 0 (classification and statistics of the grade of pesticide damage; number of plants) ([3]; mesotrione 52.5 g ai/ha): 0; Grade 1 (classification and statistics of the grade of pesticide damage; number of plants) ([3]; mesotrione 52.5 g ai/ha): 2; Grade 2 (classification and statistics of the grade of pesticide damage; number of plants) ([3]; mesotrione 52.5 g ai/ha): 13; Grade 3 (classification and statistics of the grade of pesticide damage; number of plants) ([3]; mesotrione 52.5 g ai/ha): 1; Resistance evaluation ([3]; mesotrione 105 g ai/ha): Non-resistant; Scores ([3]; mesotrione 105 g ai/ha): 100; Grade 0 (classification and statistics of the grade of pesticide damage; number of plants) ([3]; mesotrione 105 g ai/ha): 0; Grade 1 (classification and statistics of the grade of pesticide damage; number of plants) ([3]; mesotrione 105 g ai/ha): 0; Grade 2 (classification and statistics of the grade of pesticide damage; number of plants) ([3]; mesotrione 105 g ai/ha): 0; Grade 3 (classification and statistics of the grade of pesticide damage; number of plants) ([3]; mesotrione 105 g ai/ha): 16 |
| B2 | 0 | 0 | 10 | 6 | 0 | 0 | 0 | 16 | 79 | 100 | non-resistant (non-resistant plants (scores 68-100)) | non-resistant (non-resistant plants (scores 68-100)) | Non-resistant | 88 | 0 | 0 | 6 | 10 | Non-resistant | 100 | Classification and statistics of the grade of pesticide damage: Grade 0 (number of plants) [2, 5]: 0; Classification and statistics of the grade of pesticide damage: Grade 1 (number of plants) [2, 5]: 0; Classification and statistics of the grade of pesticide damage: Grade 2 (number of plants) [2, 5]: 0; Classification and statistics of the grade of pesticide damage: Grade 3 (number of plants) [2, 5]: 16; Resistance evaluation ([3]; mesotrione 52.5 g ai/ha): Non-resistant; Scores ([3]; mesotrione 52.5 g ai/ha): 100; Grade 0 (classification and statistics of the grade of pesticide damage; number of plants) ([3]; mesotrione 52.5 g ai/ha): 0; Grade 1 (classification and statistics of the grade of pesticide damage; number of plants) ([3]; mesotrione 52.5 g ai/ha): 0; Grade 2 (classification and statistics of the grade of pesticide damage; number of plants) ([3]; mesotrione 52.5 g ai/ha): 0; Grade 3 (classification and statistics of the grade of pesticide damage; number of plants) ([3]; mesotrione 52.5 g ai/ha): 16; Resistance evaluation ([3]; mesotrione 105 g ai/ha): Non-resistant; Scores ([3]; mesotrione 105 g ai/ha): 100; Grade 0 (classification and statistics of the grade of pesticide damage; number of plants) ([3]; mesotrione 105 g ai/ha): 0; Grade 1 (classification and statistics of the grade of pesticide damage; number of plants) ([3]; mesotrione 105 g ai/ha): 0; Grade 2 (classification and statistics of the grade of pesticide damage; number of plants) ([3]; mesotrione 105 g ai/ha): 0; Grade 3 (classification and statistics of the grade of pesticide damage; number of plants) ([3]; mesotrione 105 g ai/ha): 16 |
